Data from patent publication US20090311253A1 (AbbVie / Abbott, published 2009).
“And” between values parts separate entries of the source, which are not always exact repeats. Equal entries are not always repeated.

Key:
Recombinant Human IL-9 = Recombinant Human IL-9 (human, UniProt P15248 19-144); assay: Biacore SPR
Protocol: (§1) The BIACORE assay (Biacore, Inc, Piscataway, N.J.) determines the affinity of antibodies or DVD-Ig with kinetic measurements of on-rate and off-rate constants. Binding of antibodies or DVD-Ig to a target antigen (for example, a purified recombinant target antigen) is determined by surface plasmon resonance-based measurements with a BiacoreR 1000 or 3000 instrument (Biacore® AB, Uppsala, Sweden) using running HBS-EP (10 mM HEPES [pH 7.4], 150 mM NaCl, 3 mM EDTA, and 0.005% surfactant P20) at 25° C. All chemicals are obtained from Biacore® AB (Uppsala, Sweden) or otherwise from a different source as described in the text. For example, approximately 5000 RU of goat anti-mouse IgG, (Fcγ), fragment specific polyclonal antibody (Pierce Biotechnology Inc, Rockford, Ill.) diluted in 10 mM sodium acetate (pH 4.5) is directly immobilized across a CM5 research grade biosensor chip using a standard amine coupling kit according to manufacturer's instructions and procedures at 25 μg/ml. Unreacted moieties on the biosensor surface are blocked with ethanolamine. Modified carboxymethyl dextran surface in flowcell 2 and 4 is used as a reaction surface. Unmodified carboxymethyl dextran without goat anti-mouse IgG in flow cell 1 and 3 is used as the reference surface. For kinetic analysis, rate equations derived from the 1:1 Langmuir binding model are fitted simultaneously to association and dissociation phases of all eight injections (using global fit analysis) with the use of Biaevaluation 4.0.1 software. Purified antibodies or DVD-Ig are diluted in HEPES-buffered saline for capture across goat anti-mouse IgG specific reaction surfaces. Antibodies or DVD-Ig to be captured as a ligand (25 μg/ml) are injected over reaction matrices at a flow rate of 5 μl/min. The association and dissociation rate constants, kₒₙ (M⁻¹s⁻¹) and koff (s⁻¹) are determined under a continuous flow rate of 25 μl/min. Rate constants are derived by making kinetic binding measurements at different antigen concentrations ranging from […]. The equilibrium dissociation constant (M) of the reaction between antibodies or DVD-Igs and the target antigen is then calculated from the kinetic rate constants by the following formula: KD=koff/kₒₙ. Binding is recorded as a function of time and kinetic rate constants are calculated.

Recombinant Human IL-13 [1] = target: T1, Recombinant Human IL-13 (human, UniProt P35225 35-146, limits assumed); assay: cell-based or functional assay
Recombinant Human IL-13 [2] = target: T1, Recombinant Human IL-13; assay: Biacore SPR
Protocol: as §1

Recombinant Human IL-4 [3] = target: T2, Recombinant Human IL-4 (human, UniProt P05112 25-153); assay: direct bind ELISA
T2 sequence (looked up): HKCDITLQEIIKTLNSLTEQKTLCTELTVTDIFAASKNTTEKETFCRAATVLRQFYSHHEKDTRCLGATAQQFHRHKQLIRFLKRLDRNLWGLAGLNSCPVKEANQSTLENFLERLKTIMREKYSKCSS
Protocol: (§2) Enzyme Linked Immunosorbent Assays to screen for antibodies that bind a desired target antigen were performed as follows. High bind ELISA plates (Corning Costar # 3369, Acton, Mass.) were coated with 100 μL/well of 10 μg/ml of desired target antigen (R&D Systems, Minneapolis, Minn.) or desired target antigen extra-cellular domain/FC fusion protein (R&D Systems, Minneapolis, Minn.) or monoclonal mouse anti-polyhistidine antibody (R&D Systems # MAB050, Minneapolis, Minn.) in phosphate buffered saline (10×PBS, Abbott Bioresearch Center, Media Prep# MPS-073, Worcester, Mass.) overnight at 4° C. Plates were washed four times with PBS containing 0.02% Tween 20. Plates were blocked by the addition of 300 μL/well blocking solution (non-fat dry milk powder, various retail suppliers, diluted to 2% in PBS) for ½ hour at room temperature. Plates were washed four times after blocking with PBS containing 0.02% Tween 20.
(§3) Plates were washed 4 times with PBS containing 0.02% Tween 20.
(§4) One hundred microliters of enhanced TMB solution (Neogen Corp. #308177, K Blue, Lexington, Ky.) was added to each well and incubated for 10 minutes at room temperature. The reaction was stopped by the addition of 50 μL 1N sulphuric acid. Plates were read spectrophotometrically at a wavelength of 450 nm.

Recombinant Human IL-4 [4] = target: T2, Recombinant Human IL-4; assay: cell-based or functional assay
Recombinant Human IL-4 [5] = target: T2, Recombinant Human IL-4; assay: Biacore SPR
Protocol: as §1

IL-6R on cells [6] = target: T3, IL-6R on cells (UniProt P08887 20-468, limits assumed); assay: flow cytometry on cells, 2 µg/mL
T3 construct: whole, on cells
T3 sequence (looked up): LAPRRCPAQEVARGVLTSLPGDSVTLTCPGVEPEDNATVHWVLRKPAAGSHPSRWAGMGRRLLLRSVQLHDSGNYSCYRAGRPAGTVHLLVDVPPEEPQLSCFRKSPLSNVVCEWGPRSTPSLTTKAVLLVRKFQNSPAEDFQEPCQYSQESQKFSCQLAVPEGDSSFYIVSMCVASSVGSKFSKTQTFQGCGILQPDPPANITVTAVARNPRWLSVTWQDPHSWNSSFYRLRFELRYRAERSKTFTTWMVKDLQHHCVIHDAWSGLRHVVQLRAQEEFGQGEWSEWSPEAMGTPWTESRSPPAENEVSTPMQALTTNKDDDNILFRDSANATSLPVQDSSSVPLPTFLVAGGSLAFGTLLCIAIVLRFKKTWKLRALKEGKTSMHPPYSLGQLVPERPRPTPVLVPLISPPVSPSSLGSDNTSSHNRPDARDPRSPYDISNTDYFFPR
Protocol: Stable cell lines overexpressing a cell-surface antigen of interest or human tumor cell lines were harvested from tissue culture flasks and resuspended in phosphate buffered saline (PBS) containing 5% fetal bovine serum (PBS/FBS). Prior to staining, human tumor cells were incubated on ice with (100 μl) human IgG at 5 μg/ml in PBS/FCS. 1−5×10⁵ cells were incubated with antibody or DVD-Ig (2 μg/mL) in PBS/FBS for 30-60 minutes on ice. […] After 30 minutes incubation on ice, cells were washed twice and resuspended in PBS/FBS. Fluorescence was measured using a Becton Dickinson FACSCalibur (Becton Dickinson, San Jose, Calif.).
The geometric mean is the n root of the multiplication product of n fluorescent signals (a1×a2×a3 . . . an). With log-transformed data the geometric mean is used to normalize the weighting of the data distribution.

[7] = target: T4, Recombinant Human IL-6 sR (human, UniProt P08887 20-358, limits assumed); assay: direct bind ELISA
T4 construct: domain: IL-6 sR; soluble receptor; also called IL-6R
T4 sequence (looked up): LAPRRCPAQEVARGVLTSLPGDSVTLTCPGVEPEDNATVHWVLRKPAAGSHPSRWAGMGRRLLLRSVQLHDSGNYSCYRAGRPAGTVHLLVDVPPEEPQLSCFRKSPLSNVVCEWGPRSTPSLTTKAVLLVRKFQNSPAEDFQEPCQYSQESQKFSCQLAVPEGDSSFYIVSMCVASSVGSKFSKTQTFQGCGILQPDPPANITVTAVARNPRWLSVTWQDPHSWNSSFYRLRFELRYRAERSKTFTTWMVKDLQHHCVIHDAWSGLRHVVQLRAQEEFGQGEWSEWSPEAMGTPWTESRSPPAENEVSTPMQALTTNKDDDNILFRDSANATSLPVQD
Protocol: as §2, §3, §4

IL-6R on cells [8] = target: T3, IL-6R on cells; assay: cell-based or functional assay
[9] = target: T4, Recombinant Human IL-6 sR; assay: Biacore SPR
Protocol: as §1

[10] = target: T5, Recombinant Human TRANCE/RANKL/TNFSF 11 (human, UniProt O14788 69-317); assay: direct bind ELISA
T5 construct: extracellular domain
T5 sequence (looked up): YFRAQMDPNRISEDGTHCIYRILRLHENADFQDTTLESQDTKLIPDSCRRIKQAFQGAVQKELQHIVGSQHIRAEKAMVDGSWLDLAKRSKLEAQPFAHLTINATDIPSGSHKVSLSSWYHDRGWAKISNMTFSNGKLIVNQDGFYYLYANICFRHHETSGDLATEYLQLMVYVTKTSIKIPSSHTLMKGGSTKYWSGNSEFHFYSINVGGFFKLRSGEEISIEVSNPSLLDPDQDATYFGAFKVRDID
Protocol: as §2, §3, §4

Recombinant Human IL-1β [11] = target: T6, Recombinant Human IL-1β (human, UniProt P01584 117-269); assay: direct bind ELISA
T6 construct: also called IL-1b; IL-1B
Protocol: as §2, §3, §4

Recombinant Human IL-1β [12] = target: T6, Recombinant Human IL-1β; assay: cell-based or functional assay
Recombinant Human IL-1β [13] = target: T6, Recombinant Human IL-1β; assay: Biacore SPR
Protocol: as §1

[14] = target: T5, Recombinant Human TRANCE/RANKL/TNFSF 11; assay: Biacore SPR
Protocol: as §1

Sequence of Recombinant Human IL-9 (P15248 19-144 limits assumed): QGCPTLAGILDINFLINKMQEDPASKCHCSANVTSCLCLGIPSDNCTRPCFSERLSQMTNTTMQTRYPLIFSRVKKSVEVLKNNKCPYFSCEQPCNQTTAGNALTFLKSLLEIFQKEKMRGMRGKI
T1 sequence (P35225 35-146 limits assumed): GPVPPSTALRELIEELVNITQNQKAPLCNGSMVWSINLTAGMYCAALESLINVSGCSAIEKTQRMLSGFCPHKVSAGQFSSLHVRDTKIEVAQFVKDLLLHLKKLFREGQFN

B1: AB056 (antibody, human IgG1, kappa, V domains shown)
VH: QVQLQQSGAELMKPGASVKLSCKATGYTFTGSWIEWIKQRPGHGLEWIGQILPGSGSAYYNEKFKGKATFTADTSSKTVYIQLISLTTEDSAIYYCAREDNYGSSSLAYWGQGTLLTVSA
VL: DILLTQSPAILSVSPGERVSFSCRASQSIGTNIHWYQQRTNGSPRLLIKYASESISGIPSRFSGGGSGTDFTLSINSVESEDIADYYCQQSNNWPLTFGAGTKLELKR
notes: vectors V1 and V2
Which results are given for B1?
Kd (Recombinant Human IL-9): 9.93 pM; koff (Recombinant Human IL-9): 5.62e-05 s⁻¹; kon (Recombinant Human IL-9): 5.66e+06 M⁻¹ s⁻¹

B2: AB051 (antibody, human IgG1, kappa, V domains shown)
VH: EVTLRESGPGLVKPTQTLTLTCTLYGFSLSTSDMGVDWIRQPPGKGLEWLAHIWWDDVKRYNPALKSRLTISKDTSKNQVVLKLTSVDPVDTATYYCARTVSSGYIYYAMDYWGQGTLVTVSS
VL: DIQMTQSPSSLSASVGDRVTISCRASQDIRNYLNWYQQKPGKAPKLLIFYTSKLHSGVPSRFSGSGSGTDYTLTISSLQPEDIATYYCQQGLTPPLTFGGGTKVEIKR
notes: vectors V1 and V2
Which “IL-13 Neutralization Assay EC50 (A549 cells, hTARC)” value (Recombinant Human IL-13 [1]) does the source give for B2 here?
Its value is 0.1 nM.

What about the kon (Recombinant Human IL-13 [2]) of the same binder?
The kon was 2.14e+06 M⁻¹ s⁻¹.

B3: AB027 (antibody, human IgG1, kappa, V domains shown)
VH: QVTLRESGPALVKPTQTLTLTCTFSGFSLSTSGMGVSWIRQPPGKGLEWLAHIYWDDDKRYNPSLKSRLTISKDTSRNQVVLTMTNMDPVDTATYYCARRETVFYWYFDVWGRGTPVTVSS
VL: DIVLTQSPSSLSASVGDRVTITCKASQSVDYDGDSYMNWYQQKPGKAPKLLIYAASNLESGIPSRFSGSGSGTDFTFTISSLQPEDIATYYCQQSNEDPPTFGQGTKVEIKR
notes: vectors V1 and V2; also called anti-IL-4 parent antibody
What does the source list for B3?
EC50 (Recombinant Human IL-4 [3]): 5.81 nM; IL-4 Neutralization Assay EC50 (A549 cells, hTARC) (Recombinant Human IL-4 [4]): 0.21 nM; Kd (Recombinant Human IL-4 [5]): 0.0219 nM; koff (Recombinant Human IL-4 [5]): 0.00013 s⁻¹; kon (Recombinant Human IL-4 [5]): 5.92e+06 M⁻¹ s⁻¹

B4: AB054 (antibody, human IgG1, kappa, V domains shown)
VH: EVQLQESGPGLVRPSQTLSLTCTVSGYSITSDHAWSWVRQPPGRGLEWIGYISYSGITTYNPSLKSRVTMLRDTSKNQFSLRLSSVTAADTAVYYCARSLARTTAMDYWGQGSLVTVSS
VL: DIQMTQSPSSLSASVGDRVTITCRASQDISSYLNWYQQKPGKAPKLLIYYTSRLHSGVPSRFSGSGSGTDFTFTISSLQPEDIATYYCQQGNTLPYTFGQGTKVEIKR
notes: vectors V1 and V2; also called anti-IL-6R parent antibody
For B4, which “FACS Geometric Mean” value (IL-6R on cells [6]) is on record?
The value was 5.94.

And the EC50 [7]?
The EC50 was 1.42 nM and 1.24 nM and 1.31 nM.

What about the “IL-6 induced pSTAT3 in TF-1 cells, EC50” value (IL-6R on cells [8]) of the same binder?
Its value is 70 pM.

What about the Kd [9] of the same binder?
Its Kd is 0.614 nM.

What about the koff [9] of the same binder?
Its koff is 0.000206 s⁻¹.

And the kon [9]?
The kon was 336000 M⁻¹ s⁻¹.

B5: DVD129 (bispecific antibody, human IgG1, kappa)
heavy: not shown
light: DIQMTQSPSSLSASVGDRVTITCRASQDISSYLNWYQQKPGKAPKLLIYYTSRLHSGVPSRFSGSGSGTDFTFTISSLQPEDIATYYCQQGNTLPYTFGQGTKVEIKRTVAAPEIVLTQSPGTLSLSPGERATLSCRASQSVRGRYLAWYQQKPGQAPRLLIYGASSRATGIPDRFSGSGSGTDFTLTISRLEPEDFAVFYCQQYGSSPRTFGQGTKVEIKRTVAAPSVFIFPPSDEQLKSGTASVVCLLNNFYPREAKVQWKVDNALQSGNSQESVTEQDSKDSTYSLSSTLTLSKADYEKHKVYACEVTHQGLSSPVTKSFNRGEC
notes: vectors V1, V2; also called IL-6R and RANKL DVD-Ig
What does the source list for B5?
FACS Geometric Mean (IL-6R on cells [6]): 8.43; EC50 [7]: 0.96 nM; EC50 [10]: 0.53 nM; IL-6 induced pSTAT3 in TF-1 cells, EC50 (IL-6R on cells [8]): 0.16 nM

B6: DVD126 (bispecific antibody, human IgG1, kappa)
heavy: not shown
light: EIVLTQSPGTLSLSPGERATLSCRASQSVRGRYLAWYQQKPGQAPRLLIYGASSRATGIPDRFSGSGSGTDFTLTISRLEPEDFAVFYCQQYGSSPRTFGQGTKVEIKRTVAAPEIVLTQSPDFQSVTPKEKVTITCRASQSIGSSLHWYQQKPDQSPKLLIKYASQSFSGVPSRFSGSGSGTDFTLTINSLEAEDAAAYYCHQSSSLPFTFGPGTKVDIKRTVAAPSVFIFPPSDEQLKSGTASVVCLLNNFYPREAKVQWKVDNALQSGNSQESVTEQDSKDSTYSLSSTLTLSKADYEKHKVYACEVTHQGLSSPVTKSFNRGEC
notes: outer AB018, inner AB032; vectors V1, V2
What does the source list for B6?
EC50 (Recombinant Human IL-1β [11]): 4.46 µM; EC50 [10]: 0.4 nM; IL-1β Neutralization Assay EC50 (MRC5 cells, hIL-8) (Recombinant Human IL-1β [12]): 4.29 nM; Kd (Recombinant Human IL-1β [13]): < 0.117 nM; koff (Recombinant Human IL-1β [13]): < 1e-06 s⁻¹; kon (Recombinant Human IL-1β [13]): 8520 M⁻¹ s⁻¹; Kd [14]: < 8.77 pM; koff [14]: < 1e-06 s⁻¹; kon [14]: 114000 M⁻¹ s⁻¹
